Measurements published in paper PMC5468325.

Experiments:
RXFP2(1-65) P4F (human) = experiment: NMR titration; 2D 1H-15N HSQC; increasing concentrations of titrant against 50 µM 15N-labelled RXFP2(1-65) P4F; 25 °C, 50 mM imidazole, 10 mM CaCl2, pH 6.8
[1] = target: RXFP1 LDLa-linker (human); experiment: NMR titration; RXFP1 LDLa-linker titrated with truncated relaxin (Supp Fig. 5)
RXFP2 S45A (human) [2] = target: RXFP2 S45A (human)
RXFP2-F51A (human) [3] = target: RXFP2-F51A (human)
RXFP2-G42A (human) [4] = target: RXFP2-G42A (human)
[5] = target: Relaxin family peptide receptor 2 (RXFP2), wild type (human) (UniProt Q8WXD0)
UniProt Q8WXD0, sequence (Q8WXD0 whole entry): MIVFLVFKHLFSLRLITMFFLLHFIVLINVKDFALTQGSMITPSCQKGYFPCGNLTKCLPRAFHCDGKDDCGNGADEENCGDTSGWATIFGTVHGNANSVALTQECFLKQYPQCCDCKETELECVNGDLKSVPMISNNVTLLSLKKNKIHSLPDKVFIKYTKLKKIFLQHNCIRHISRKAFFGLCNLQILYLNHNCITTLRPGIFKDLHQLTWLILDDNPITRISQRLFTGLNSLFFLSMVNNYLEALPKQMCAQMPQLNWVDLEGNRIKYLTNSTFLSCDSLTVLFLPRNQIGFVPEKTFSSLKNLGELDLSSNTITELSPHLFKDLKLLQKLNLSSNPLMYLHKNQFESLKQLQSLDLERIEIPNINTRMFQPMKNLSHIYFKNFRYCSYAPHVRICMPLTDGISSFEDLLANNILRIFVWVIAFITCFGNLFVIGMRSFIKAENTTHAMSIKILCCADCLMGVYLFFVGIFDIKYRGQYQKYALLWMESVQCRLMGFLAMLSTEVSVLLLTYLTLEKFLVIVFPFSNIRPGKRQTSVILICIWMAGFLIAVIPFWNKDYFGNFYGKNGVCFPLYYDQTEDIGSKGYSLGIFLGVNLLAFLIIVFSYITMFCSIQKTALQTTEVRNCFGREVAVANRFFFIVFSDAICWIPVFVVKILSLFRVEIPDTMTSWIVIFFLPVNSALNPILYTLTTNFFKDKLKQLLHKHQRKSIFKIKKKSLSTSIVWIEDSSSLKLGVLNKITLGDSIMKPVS

RXFP2 T44A (human) [6] = target: RXFP2 T44A (human)
[7] = target: Relaxin family peptide receptor 2 (RXFP2), wild type (human) (UniProt Q8WXD0); experiment: europium-labelled ligand saturation binding on whole cells (time-resolved fluorescence); HEK293T cells transiently transfected with receptor; increasing concentrations of Eu-INSL3 or Eu-H2 relaxin with or without 1 µM unlabeled ligand, 1 h incubation; one-site binding curves
RXFP2 S45A (human) [8] = experiment: as above
RXFP2 W47A (human) = experiment: as above
RXFP2-F51A (human) [9] = experiment: as above
RXFP2-G42A (human) [10] = experiment: as above
RXFP2-G46A (human) = experiment: as above
RXFP2 D43A (human) = experiment: as above
RXFP2 T44A (human) [11] = experiment: as above

**Q.** “B5-29 [B-K9R,A-K9/17R] H2 relaxin (ligand)” was tested. Which Kd (RXFP2(1-65) P4F (human)) did it give?
**A.** 330000 nM

**Q.** And the Kd [1]?
**A.** 90000 nM

**Q.** For “Europium (Eu3+)-labelled H2 relaxin (ligand)”, which Emax: maximal cAMP response (pCRE beta-galactosidase reporter, HEK293T) to unlabelled H2 relaxin, max value based on 1 µM activation (RXFP2 S45A (human) [2]) is on record?
**A.** 100%

**Q.** And the pEC50 of the cAMP response (pCRE beta-galactosidase reporter, HEK293T) to unlabelled H2 relaxin (RXFP2 S45A (human) [2])?
**A.** 9.03

**Q.** What about the Emax: maximal cAMP response (pCRE beta-galactosidase reporter, HEK293T) to unlabelled H2 relaxin, max value based on 1 µM activation (RXFP2-F51A (human) [3]) of the same substance?
**A.** 18.8%

**Q.** What about the pEC50 of the cAMP response (pCRE beta-galactosidase reporter, HEK293T) to unlabelled H2 relaxin (RXFP2-F51A (human) [3]) of the same substance?
**A.** < 6

**Q.** And the Emax: maximal cAMP response (pCRE beta-galactosidase reporter, HEK293T) to unlabelled H2 relaxin, max value based on 1 µM activation (RXFP2-G42A (human) [4])?
**A.** 75.2%

**Q.** And the pEC50 of the cAMP response (pCRE beta-galactosidase reporter, HEK293T) to unlabelled H2 relaxin (RXFP2-G42A (human) [4])?
**A.** 7.98

**Q.** And the Emax: maximal cAMP response (pCRE beta-galactosidase reporter, HEK293T) to unlabelled H2 relaxin, max value based on 1 µM activation [5]?
**A.** 100%

**Q.** And the pEC50 of the cAMP response (pCRE beta-galactosidase reporter, HEK293T) to unlabelled H2 relaxin [5]?
**A.** 8.45

**Q.** And the Emax: maximal cAMP response (pCRE beta-galactosidase reporter, HEK293T) to unlabelled H2 relaxin, max value based on 1 µM activation (RXFP2 T44A (human) [6])?
**A.** 53%

**Q.** What about the pEC50 of the cAMP response (pCRE beta-galactosidase reporter, HEK293T) to unlabelled H2 relaxin (RXFP2 T44A (human) [6]) of the same substance?
**A.** 8.63

**Q.** And the Kd [7]?
**A.** 9.96 nM

**Q.** Europium (Eu3+)-labelled INSL3 (ligand) was tested. Which Emax: maximal cAMP response (pCRE beta-galactosidase reporter, HEK293T) to unlabelled INSL3 (% maximal RXFP2 activity) (RXFP2 S45A (human) [2]) did it give?
**A.** 92.2

**Q.** What about the pEC50 of the cAMP response (pCRE beta-galactosidase reporter, HEK293T) to unlabelled INSL3 (RXFP2 S45A (human) [2]) of the same substance?
**A.** 10.1

**Q.** What about the Emax: maximal cAMP response (pCRE beta-galactosidase reporter, HEK293T) to unlabelled INSL3 (% maximal RXFP2 activity) (RXFP2-F51A (human) [3]) of the same substance?
**A.** 39.8

**Q.** What about the pEC50 of the cAMP response (pCRE beta-galactosidase reporter, HEK293T) to unlabelled INSL3 (RXFP2-F51A (human) [3]) of the same substance?
**A.** 9.36

**Q.** What about the Emax: maximal cAMP response (pCRE beta-galactosidase reporter, HEK293T) to unlabelled INSL3 (% maximal RXFP2 activity) (RXFP2-G42A (human) [4]) of the same substance?
**A.** 39.5

**Q.** And the pEC50 of the cAMP response (pCRE beta-galactosidase reporter, HEK293T) to unlabelled INSL3 (RXFP2-G42A (human) [4])?
**A.** 8.98

**Q.** And the Emax: maximal cAMP response (pCRE beta-galactosidase reporter, HEK293T) to unlabelled INSL3 (% maximal RXFP2 activity) [5]?
**A.** 100

**Q.** What about the pEC50 of the cAMP response (pCRE beta-galactosidase reporter, HEK293T) to unlabelled INSL3 [5] of the same substance?
**A.** 9.99

**Q.** What about the Emax: maximal cAMP response (pCRE beta-galactosidase reporter, HEK293T) to unlabelled INSL3 (% maximal RXFP2 activity) (RXFP2 T44A (human) [6]) of the same substance?
**A.** 98.7

**Q.** And the pEC50 of the cAMP response (pCRE beta-galactosidase reporter, HEK293T) to unlabelled INSL3 (RXFP2 T44A (human) [6])?
**A.** 10.5

**Q.** What about the Kd (RXFP2 S45A (human) [8]) of the same substance?
**A.** 1.05 nM

**Q.** What about the Kd (RXFP2 W47A (human)) of the same substance?
**A.** 1.5 nM

**Q.** What about the Kd (RXFP2-F51A (human) [9]) of the same substance?
**A.** 1.55 nM

**Q.** And the Kd (RXFP2-G42A (human) [10])?
**A.** 1.93 nM

**Q.** And the Kd (RXFP2-G46A (human))?
**A.** 1.51 nM

**Q.** And the Kd [7]?
**A.** 1.07 nM

**Q.** And the Kd (RXFP2 D43A (human))?
**A.** 1.18 nM

**Q.** What about the Kd (RXFP2 T44A (human) [11]) of the same substance?
**A.** 2.11 nM
